Measurements published in article PMC2651776 (Nucleic Acids Research, 2009).

T1: MepR (Staphylococcus aureus, UniProt Q5Y812)
T1 sequence (Q5Y812 1-139): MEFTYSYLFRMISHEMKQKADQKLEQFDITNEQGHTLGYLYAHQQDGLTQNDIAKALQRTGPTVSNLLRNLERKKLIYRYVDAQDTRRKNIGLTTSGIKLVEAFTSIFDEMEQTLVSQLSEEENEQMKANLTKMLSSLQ


Key:
MepR [1] = target: T1, MepR; format: binding
SEC = target: the molecule itself; experiment: SEC
MepR [2] = target: MepR (Staphylococcus aureus, UniProt A0A0H3JPT9 1-139); experiment: fluorescence polarization

Molecule	Kd (MepR [1])	Kd (MepR [2])	further results
N=C(N)c1ccc(-c2cc3ccc(C(=N)N)cc3[nH]2)cc1 [DAPI, 4′,6-diamidino-2-phenylindole]	4500 nM	–	–
CC/N=c1\cc2oc3cc(NCC)c(C)cc3c(-c3ccccc3C(=O)OCC)c-2cc1C [rhodamine 6G]	62600 nM	–	–
CC[n+]1c(-c2ccccc2)c2cc(N)ccc2c2ccc(N)cc21 [ethidium]	2600 nM	–	–
MepR (natural protein, Staphylococcus aureus) MEFTYSYLFRMISHEMKQKADQKLEQFDITNEQGHTLGYLYAHQQDGLTQNDIAKALQRTGPTVSNLLRNLERKKLIYRYVDAQDTRRKNIGLTTSGIKLVEAFTSIFDEMEQTLVSQLSEEENEQMKANLTKMLSSLQ	–	–	stoichiometry N (SEC): 2
mepA 44 bp full site (dsDNA) DNA 1: TTATAGTTAGATATCTAATTGTTAGTAAGCTAATTATTGGAAAA DNA 2: TTTTCCAATAATTAGCTTACTAACAATTAGATATCTAACTATAA	–	6.3 nM	–
mepA 26 bp (3'-truncated) (dsDNA) DNA 1: TTATAGTTAGATATCTAATTGTTAGT DNA 2: ACTAACAATTAGATATCTAACTATAA	–	15.3 nM	–
mepA 22 bp (3'-truncated) (dsDNA) DNA 1: TTATAGTTAGATATCTAATTGT DNA 2: ACAATTAGATATCTAACTATAA	–	46.4 nM	–
mepR 26 bp site (dsDNA) DNA 1: TATTTAGTTAGACATCTAACGAATGG DNA 2: CCATTCGTTAGATGTCTAACTAAATA	–	24.3 nM	–
